B1: SPSB1 (parent)
chain: DMRDPTYRPLKQELQGLDYCKPTR

Variants of: B1
Assay: protein stability index of a GFP-peptide fusion (GPS, HEK-293T) (PSI 1-6); higher = more stable
Details: c terminus: a fixed tail appended
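Note: lentivirally expressed fusions sorted by FACS into six bins by GFP to DsRed ratio, PSI derived from sequencing read proportions per bin multiplied by bin number.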

Protein stability index of substitutions, site by site:
D18: G 3.81 | T 3.66 | S 3.48 | Q 3.83 | N 2.28 | V 3.58 | E 2.76 | W 2.1 | Y 2.99 | I 2.89
Q15: N 3.52 | I 3.05 | G 2.25 | H 2.7 | R 3.54 | M 3.33 | E 3.87 | P 2.67 | D 2.6 | K 3.59 | S 3.59 | F 2.6 | Y 3.4 | V 2.73
M2: S 3.77 | F 3.42 | L 3.01 | R 3.71 | Q 3.26 | H 3.64 | D 3.86 | N 3.38 | A 3.22 | V 3.02 | K 3.13
Y7: H 2.79 | C 3.14 | N 3.34 | F 2.98 | R 2.51 | V 3.5 | D 3.61 | M 2.64 | S 2.93 | I 2.54
C20: E 4.41 | N 4.05 | Q 2.8 | F 3.31 | K 4.6 | V 1.78 | S 4.11 | I 2.77 | W 2.15 | T 3.71 | R 4.42 | G 4.3 | A 3.34 | H 2.93
D1: T 3.62 | C 3.94 | N 3.12 | A 2.45 | I 2.57 | H 2.94 | W 1.78 | G 2.65 | R 3.32 | E 3.53 | Y 2.99
D4: C 2.96 | Q 3.6 | N 2.74 | L 2.77 | F 3.47 | G 2.97 | M 2.73 | E 3.24 | K 3.13 | R 3.53
Q12: A 3.12 | F 2.67 | Y 3.12 | K 2.94 | W 2.35 | N 3.17 | H 3.46
T6: K 3.47 | N 3.13 | S 3.59 | M 2.92 | F 3.24 | W 4.09 | P 3.57 | Y 2.98 | E 3.51
L10: K 3.22 | P 3.37 | G 3.49 | W 3.24 | M 3.25 | T 3.74 | Y 2.81 | C 2.6 | S 3.56 | V 3.14 | H 3.11 | E 4.03
R3: W 3.14 | F 2.92 | D 2.59 | K 3.2 | M 2.99 | T 3.42 | Q 3.45 | G 3.21 | P 3.36 | I 2.96 | E 3.84
E13: T 3.18 | V 3.1 | K 2.83 | I 2.62 | W 2.44 | Y 2.41 | R 2.98 | G 3.59 | A 3.09 | Q 2.98 | S 3.4 | H 3.07 | D 3.68 | P 3.68 | F 2.58 | M 2.48
R8: N 3.46 | G 3.43 | I 3.31 | C 2.79 | Q 3.83 | L 3.23 | D 3.95 | K 3.1 | P 3.17 | V 3.27 | F 2.6 | E 3.55 | S 2.68
G16: E 2.93 | K 3.34 | S 3.32 | Q 3.94 | F 2.24 | N 3.24 | I 2.17 | T 3.36 | R 3.78 | A 3.73 | M 3.35 | D 3.34 | V 2.71 | H 3.1
P5: V 3.01 | C 3.21 | A 3.28 | K 3.28 | N 2.93 | S 3.61 | R 2.71 | F 3 | Y 2.93 | D 3.1
R24: C 1.93 | L 1.6 | Q 3.18 | H 2.98 | G 3.85 | Y 2.21 | T 3.27 | A 2.32 | E 4.56 | W 1.93 | M 1.64 | V 1.92 | F 2.41
K21: T 2.63 | L 3.38 | D 1.74 | M 2.39 | R 3.5 | Q 2.64 | I 1.87 | N 1.78 | A 2.9 | F 1.6 | E 2.76 | C 2.44
P9: Y 2.67 | I 3.32 | M 2.6 | L 2.58 | V 3.19 | S 3.35 | C 2.52 | N 3.35 | R 2.25 | E 3.67 | Q 2.72
T23: G 4.26 | P 4.33 | F 2.09 | D 2.87 | R 4.3 | C 3.3 | K 3.9 | E 3.92 | W 1.76 | Y 2.5 | L 2.99
Y19: G 4.73 | I 3.78 | R 4.4 | F 3.18 | P 4.56 | T 4.32 | V 4.5 | N 4.92 | A 4.53 | H 4.18 | E 5.15 | D 4.37 | Q 4.48 | K 3.99 | L 4.37 | M 4
L14: E 2.43 | K 4.5 | R 3.42 | C 3.71 | V 4.05 | G 4.04 | I 3.35 | W 2.96 | Y 3.49 | F 3.43 | P 3.89 | M 3.68 | D 3.83 | H 4.03 | Q 4.29
K11: M 3.71 | T 3.17 | N 4.04 | F 3.24 | E 4.03 | D 3.85 | S 3.76 | Q 3.62 | C 2.48 | I 2.88 | P 3.3 | V 3.45 | Y 4.04 | W 2.5
L17: G 3.51 | H 4.39 | Q 4.51 | T 4.29 | Y 3.7 | P 3.96 | V 4 | K 3.96 | E 4.37 | W 4.02 | I 4.02
P22: G 4.1 | M 3.07 | D 4.68 | K 4.35 | L 3.18 | C 3.71 | N 3.92 | I 2.29

From the supplement of paper PMC10567573
